The data set is described as follows: label from the status in PepcDB records.
As to “MMINMNRKITTYQWWIATLAIVSIFLIILDFAAVIDINIPTSKWFWINDGIVVYFAINYFYHLSKSNDKKTFFKNHIYDLLIIIPIGMLFVVLNAFNLSSLVSYLRLLRLIRLAGLMGKLRQIFHTNGLWYVVFFTITFLLVGAEAFAISEHVSLDTAFWWVLSTASTVGYDGIFGKTIPPHSIVGKFVTLVMMLLGIGIVGMLTSSITSYLVRRTNGANTLETHDNIELILKKLDDIEQQNKELTYQNKKLQAEIQTLKGEKNPLMSYIR”, the protein production entry is recorded as “failed”.
For the sequence “MDNASEQRNYTTFWVGLASLTLEVVFIMAKSRVKKRPDGRYAMQIYLGTVDGKRKYKTVYGGTPKEVQKKADEVRILMGKGIDISAQRDTFKEWGNHWLKIKKAIVSSAHYKTCEQKLRIINCYIGDMPISQIKTANVQNIIFDLSSLNRWTGKPTAKRTLVEYRSVCRQVFQLAIENRIIDYNPASSVKIVSNQLKKERRALSVEEQGWIINTPHRAQKAAMIMMFAGLRRGEVIPLTWNDIDFEAGTIRVNKSVFKEGTRFNIKSGAKTESGNRVVNIPQILIDFLKLQPKDTILVCPDTKDVMMTETSWRRMWDSYIKDLNIKYGDLNGKRSKYDPKGVPITIPRITPHWLRHTFCTLLYLSGTDVLTAKEQMGHSDIKTTLGIYTHLDKEHKRNAVSKLNEYIETHASHMQVKNS”, the protein production result is listed as “failed”.
As to “MTKPMIQIALDQTNLTDAVAVASNVASYVDVIEVGTILAFAEGMKAVSTLRHNHPNHILVCDMKTTDGGAILSRMAFEAGADWITVSAAAHIATIAACKKVADELNGEIQIEIYGNWTMQDAKAWVDLGITQAIYHRSRDAELAGIGWTTDDLDKMRQLSALGIELSITGGIVPEDIYLFEGIKTKTFIAGRALAGAEGQQTAAALREQIDRFWP”, the protein production result is “not failed”.
For “MIKLIKNEIIKMLFKKKVILIMAIILIEACAFAYGQNNKYQRTVRSYVNSNSSSYNWRPLINQQIQDLQSKLKYRTVKKSEEKSINIQMEQYRYYLKNNINPITPTAGNFTSNIMAQSVTLLLPLLVIILASDIVSSEFSSRTIKVLLTRAVPRWKILLSKYIALIIMSAFVVFLTTIIPLIVSLVVFKRTGFGEPVITGYKVIAGKVDASNVVGIYQWYYILIMSALSFFISIVVGSISFMISIFVKSIGASIGIMMSALIGGNILSVFLDDIEAAKYFFVVNLNLPQYLTGKMRIVSGMNFDFSIMVLLIWSMASIVISFYVFNKKDVLV” the value was “failed”; for “MIYFCHAPNDRAIAEKIYFSLKQTGLTCWIPSQDIMAGQYYVEAIANAIEKSDIVVFIFSSHSNTSIQVIDELQKASSLNKTIIPFCVDRAMPSEPIEHYLSSPYKVDATIGLPDDNIAKLQNIIKQIYNQSSVHNANDINTVKDTFAPSNPLENNTNIIKDASDNNSQESIQFNGVINSANSQPPQNPNLPPQHQMNPNFNNTVNNMDRNMNYPIKQNVRPNPQVKSSNKIKIPLIIGGSIAGGIILLSILFMLGKNLLFSTLINSHRPSDNPVIGSNIRIDGSKYTEEEIIEFTKNAILELDRLQASREFYDTYAYNAPEYDLMRIQENVFFSLMDLDVVRFEEVAILGKNEKEHGIEYLLKVDFVCYADYEYTENNETVHRKGEALLYNNVVILETPNDGLKYLYMEGIFEDELNARNENLESSYREIAESGDVNTEDTIQTYLPDSTDEDTIMSVKDIVKKNDHKVVAVYVDVPGGQSQGSGFFIKDGVIVTNYHVIEGGKSAKILLSNGNYVDVEGVLYTDSDVDIAVLKLVNEVGIEPVTIGQARDSDKGSIAVAIGSPLGLFNTVSTGIISNFWEANGVNLIQISIPITHGNSGGALFNESGKLIGITSSGIGEANLNFAISSTHIIPICEDIKNIPYNQLNAVPLSSAGGNINSITRQAGSSNSNQSSSSGKSLLSSKYRFVNSDKPISNDATYTSDLQTIYDLALNKYYAKEDLYRDLDYAFDYILDYGTKYYLEYLEYILHETYIKEDVENFNKINESVLEVLNTTGEYIEFTADEIEIIGAGIKNDGTIDGIIVRALFYENSEPYVRSKFYFRANYDAWSYVDGFLYVGEVTEK”, “failed”.
Turning to “MSYRTISAEEAVMAIKSGDRVFLHTAAATPLRLIEAMVSRASHLRDVEIVSLHTEGDAPYVRPEFQESFRLNAFFVGRNVRSAVQCGYADAIPIFLSDVPAMFYDGVMPLDVALVHVSPPDRHGYCSLGVSVDATRAAVHTARHVIAQVNPNMPRTHGEGLLHVSKIHSLVEVDDPLPETPRHELTDVERQIGQHIASIVEDGATLQMGIGAIPDATLAALTNHKDLGIHSEMFSDGVVDLVEKGVVNGRCKKTHNEIIVASFLVGTRKLYDFVDDNPLVEMFGSDYVNDTKEIRKNPKVTAINSAIEIDMTGQVCADSIGTRHFSGVGGQMDFIRGAALSPGGKPIIALPATTRKGESRIVTQLKPGAGVVTTRAHVQYVVTEYGIVNLHGKNLRQRAEALATIAHPDFREEILRQAHELYGRKSNCLID”, the protein production entry was “failed”.
For “MEIKSILIANRGEIALRALRTIKEMGKKAICVYSEADKDALYLKYADASICIGKARSSESYLNIPAIIAAAEIAEADAIFPGYGFLSENQNFVEICAKHNIKFIGPSVEAMNLMSDKSKAKQVMQRAGVPVIPGSDGALAGAEAAKKLAKEIGYPVILKAAAGGGGRGMRVVENEKDLEKAYWSAESEAMTAFGDGTMYMEKYIQNPRHIEVQVIGDSFGNVIHVGERDCSMQRRHQKLIEESPAILLDEKTRTRLHETAIKAAKAIGYEGAGTFEFLVDKNLDFYFIEMNTRLQVEHCVSEMVSGIDIIEQMIKVAEGYALPSQESIKLNGHSIECRITAEDSKTFLPSPGKITKYIPPAGRNVRMESHCYQDYSVPAYYDSMIGKLVVWAEDRNKAIAKMKVALDELLISGIKTTKDFHLSMMENPDFINNNYDTNYLARH” the value was “not failed”; for “MADGATAVRRGLSGATRLSARFTADAETGTRQGMQALPTSRRLCASLRSLPERALAMLPAVVLALLPVIAMLLALAPGNARVAEDCALRVEGQARHADDQRIMSTVRALAQALGEVAQATPPDEREAKLIRSISPVRYGEGPWDYVILSRGTVHLYTPGMEGAAGVDFANATDARGVPFVQEMQSRAVLGGGFTEWTARRADGSTETRRVYSLVVPGTEYWLGAWTTPDGATTAKNEARNGVLITADHAAHRAALWGIMAGLPAALVLHRLLTASQRLRQEKDRR”, “failed”; for “MAGFVPLRWPISRMSSAVPRYIVGIDLGTTHTVVSYADGGDPSRIEPLFLEQLVAPGQVAGRPLLPSVRYHPATGELAEADTALPWPVEETAPGCRPVIGEFARQLGSRSRGRLVASAKSWLCHTGVDRTADILPWGAPDEVPKVSPVEASASFLRHVRCAWNHRFPAHPLETQDVIVTIPASFDDAARALTVEAARRAGLANVRLLEEPQAACYDFLWTYRGRLAETLEGVNLLLVCDVGGGTTDFTLIRVDAGGSEPELERIAVGNHLMLGGDNIDLTLAHRLEPRLTGAERSLSATDLILLAEQCRRAKETLLAEQGPESVTVTLLGKGGGLIGGARSVELSRHEVLEVVLDGFFPRVGADAVPERRSGVVEFGLPYAADPAITRHAAAFLIRHRNDAGGAAPDALLLNGGVFHSPVIAGRMAEVVGSWCGRTPVMLRNPRPDQAVAFGAVAFGLSRRGLAVRRIGGGSARAYYLLVGDANERSRRGVCILPRGAAEGQEWTVERRNFLLSVGRPVRFHVFSSTVDSGHAPGDLAVLDEAGFGELPPLAVALQAQEQGDVEVRLAARLTAIGTLQLQCVAVGDPEQRWDLELQLRGGGPRPTASASLHPRAAEAQEHIGLIFGKKTRQFGPKAVKTLRNDLEKILGKREDWDTALCRELYAALLEGAPHRRRSADHERLWLSLAGYCLRPGFGAPLDDWRVGQVWNLYSQGLQFVNEAQNWSEWWIVWRRIAGGLRAEAQQRLFADVAGFIDPVRARRGNAEALAKKRAFEDMVRLAASLERLSAGDKTMLGGWLVQRLDKAPDSAELWWALGRVGARAPFHGSAHNLVAREVVEDWVELALQRDWKRQGFVAFAATLLARLTGDRERDLDATLRNRVAEKLVASSAPEIWLELVTEVRGLDASDEKRIFGEGLPPGLRLVDSAWGALEHHHHHH”, “failed”.
For “MKISFSESQKLFAYFSGLIAALSLFIYYVSAQQSEGALILCITFGVIAAGIWFGPIYALAVTLIVLFVLGTLMMFFQTGQTSLFPAEEGLRMLVVWGIALLLFSFISGRIHDITAELRRSMTRLQSEIKSYVAVDRVTGFDNKQRMKLELSEEIKRAERYGNSFVFLLLHMHYFKEFKSLYGEKETDRLFQYVGQQIRTSVRETDKKFRPSDERIGIVLTHTPAEHMPAVLTKLKKQLDTYQLENGKYVSLTFHVCYLPYRNDIQTADQFLEELENEMMMNEL” the value was “failed”.
In the case of “MRLAYVKNHEIYGEKLLGLTLRERIEKTLQRAGFDVRFFDELSLEEAEDYLIILEPVLILERDLLLEGRKILVSDGFTVGYFFGGDFRTVFDGNLQSSIEKYLSLNNLESYEIWAIKLSNDNLKTAEKLLLSSLIKAKRTGLKPAYYDGWIAREINRKVSLRISRLLADTSVTPNQITVFSFFLSLVGSALFLLNSYLTTLLAGVIIQLHSIIDGCDGEIARLKFMESKYGAWLDGVLDRYSDFIIVFSITYVLSASNPVYWIIGFLAAFASLMIAYTGDKFVAAYMRTYSPEGFAIPITRDFRLLIIFACSVVNLPSLALVIIALLGNFEALRRIVALRSYTN”, the protein production entry is “failed”.
In the case of “MEHICGTSRIAGFRFSLYPMTDDFISVIKSALKKTDTSKVWTKTDHISTVLRGSIDHVFDAAKAIYLHAANSEQHIVMNGTFSIGCPGDTQGDTYLSKGDKRVNEDAVRGLKAEAPCQFALYPMNEPDYMGLIMEAVDIAKAQGTFVQGVHYASELDGDAHDVFSTLEAVFRMAEQQTNHITMTVNLSANSPSRKNRKQG”, the protein production result was “not failed”.
For “MSSNPLRFFVLTIFPHIISCYSEYGIVKQAIKKGKVEVYPIDLREFAPKGQVDDVPYGGLPGMVLKPEPIYEAYDYVVENYGKPFVLITEPWGEKLNQKLVNELSKKERIMIICGRYEGVDERVKKIVDMEISLGDFILSGGEIVALAVIDAVSRVLPGVLSEPQSIQEDSFQNRWLGYPVYTRPREYRGMKVPEELLSGHHKLIELWKLWHRIENTVKKRPDLIPKDLTELEKDILNSILSGKSFKEWLKEHKHLL” the value was “not failed”; for “MSAAQAVDDVPLEHAGNDVSDRMSLQRGVQLYMNYCVGCHSLKYLRYSRIAADLGLSEVQVMSTLNVTGAKFGDTIMTGMPVDTSEQWFGKIPPDLSLVARVRGSDWIYTYLRSFYVDSTRPLGWNNRLFVDVSMPNPLSHLQGVQRAEYGGASQAGADRLVTGLVLVQPGQQSPAEFDQTLRDIVNFLQYAAEP”, “failed”; for “IEFESRTTDEGVAVVRPAGRLNMVAAPRLRELLRDVVDGGTTCVVVDLSATDFIDSSGLGALIAGLKAARQAGGDLRIAQPTEQVETVLALTNLNRVLRTHDSVDAAFD”, “failed”.
For “MTHSQWQSLPRRGAYVAAINGTLGGGCAGLITASVTVVWLHAWRYWPAVLGVTAVIALLGAWLAVKRHRLTQWQLDQHGLALQRGHLWQSDTRVPISRVQHVDLRRGPIERATGLTTLVVHTAGSRLNAVALSGLDQDDAERLRDRLARQLDHDDDAL” the value was “failed”.

(Values after a protein production outcome set (Wang et al. 2014).)
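Also: failed if final PepcDB status was selected cloned or expressed and not failed if soluble or beyond.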
